{
  "source": "IntAct's records for PubMed 25218446",
  "parents": {"B1": {"name": "Pre-mRNA leakage protein 1 (Saccharomyces cerevisiae), Q07930 (parent)", "chain": "MFHRRKRPYNTRNYGHDDKKFKSQYIDIMPDFSPSGLLELESNNKEGIALKHVEPQDAISPDNYMDMLGLEARDRTMYELVIYRKNDKDKGPWKRYDLNGRSCYLVGRELGHSLDTDLDDRTEIVVADIGIPEETSSKQHCVIQFRNVRGILKCYVMDLDSSNGTCLNNVVIPGARYIELRSGDVLTLSEFEEDNDYELIFMNV", "partner": "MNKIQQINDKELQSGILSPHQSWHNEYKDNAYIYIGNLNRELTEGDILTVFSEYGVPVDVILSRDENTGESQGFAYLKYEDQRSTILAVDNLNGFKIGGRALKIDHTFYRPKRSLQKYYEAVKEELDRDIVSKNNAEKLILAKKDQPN"}, "B2": {"name": "Pre-mRNA-splicing factor CWC26 (Saccharomyces cerevisiae), P46947 (parent)", "chain": "MALHQYLSETYGPTKPKNKTKKKKKESKSDANSDKTSLIVKERLSTLQQEQEKSGVASFSKFDKQKSKNIWKNLETNELSHAITHPSASSITGNESKNDLKEIRAQEPLVTVADKSKTRKTIYRDAQGHKIQEDSKIDDSSFSRSKYEDEKAAEREQYLKNLNMGDVQKLGINVDAHDKKKNQTASSLTIEDPAITFTHDKERTVKTSLLGRKLYDKPAPENRFAIMPGSRWDGVHRSNGFEEKWFAKQNEINEKKVQSYTLQEDY", "partner": "B1 partner"}},
  "data": [
    {"variants_of": "B1", "details": "with ist3_yeast IST3, P40565", "values": [
      {"variant": "L38A", "effect of a mutation on the interaction": "decreasing interaction strength"},
      {"variant": "F32A", "effect of a mutation on the interaction": "disrupting interaction strength"}
    ]},
    {"variants_of": "B2", "details": "with ist3_yeast IST3, P40565", "values": [
      {"variant": "R237A", "effect of a mutation on the interaction": "disrupting interaction strength"},
      {"variant": "W232A", "effect of a mutation on the interaction": "disrupting interaction strength"},
      {"variant": "F224A", "effect of a mutation on the interaction": "decreasing interaction strength"},
      {"variant": "V235A", "effect of a mutation on the interaction": "decreasing interaction strength"}
    ]}
  ]
}
